B1: HES-GCSF 50/0.7: hG-CSF conjugated with AldehydoHES50/0.7 of example 6.1(j), prepared in example 6.2(b) (conjugate, UniProt P09919 31-207, looked up)
Granulocyte …: TPLGPASSLPQSFLLKCLEQVRKIQGDGAALQEKLVSECATYKLCHPEELVLLGHSLGIPWAPLSSCPSQALQLAGCLSQLHSGLFLYQGLLQALEGISPELGPTLDTLQLDVADFATTIWQQMEELGMAPALQPTQGAMPAFASAFQRRAGGVLVASHLQSFLEVSYRVLRHLAQP
modifications: hydroxyethyl starch conjugate HES50/0.7
B2: HES-GCSF 10/0.4: hG-CSF conjugated with AldehydoHES10/0.4 of example 6.1(b), prepared in example 6.2(b) (conjugate, UniProt P09919 31-207, looked up)
Granulocyte …: B1 Granulocyte …
modifications: hydroxyethyl starch conjugate HES10/0.4
B3: HES-GCSF 30/0.4: hG-CSF conjugated with AldehydoHES30/0.4 of example 6.1(f), prepared in example 6.2(d) (conjugate, UniProt P09919 31-207, looked up)
Granulocyte …: B1 Granulocyte …
modifications: hydroxyethyl starch conjugate HES30/0.4
B4: Neulasta: non-modified Neulasta (Amgen) (conjugate, UniProt P09919 31-207, looked up)
Granulocyte …: B1 Granulocyte …
modifications: pegfilgrastim; 20 kDa PEG
B5: HES-GCSF 10/0.7: hG-CSF conjugated with AldehydoHES10/0.7 of example 6.1(d), prepared in example 6.2(b) (conjugate, UniProt P09919 31-207, looked up)
Granulocyte …: B1 Granulocyte …
modifications: hydroxyethyl starch conjugate HES10/0.7
B6: Neupogen: non-modified Neupogen (Amgen), rhG-CSF filgrastim, non-glycosylated, E. coli (protein, UniProt P09919 31-207, looked up)
Granulocyte …: B1 Granulocyte …
modifications: filgrastim, N-terminal Met
notes: non-modified Neupogen (Amgen), rhG-CSF filgrastim, non-glycosylated, E. coli
B7: Mock-incubation: reaction control: hG-CSF incubated with 197 mg/ml non-functionalized HES50/0.7 (MW 47,000 D, DS 0.76) (protein, UniProt P09919 31-207, looked up)
Granulocyte …: B1 Granulocyte …
modifications: mixed with non-functionalized HES

Test system: mouse NFS-60 cells
Assay: Mitogenicity of G-CSF variants for mouse NFS-60 cells (Example 6.3)
Format: cell-based
Conditions: Conc. 5 pg/ml (G-CSF content), 3 days
Description: G-CSF is known for its specific effects on the proliferation, differentiation and activation of hematopoietic cells of the neutrophilic granulocyte lineage. The mitogenic capacity of G-CSF variants was tested using mouse NFS-60 cells (N. Shirafuji et al., Exp. Hematol. 1989, 17, 116-119). Cells grown in RPMI medium with 10% fetal calf serum (Gibco INVITROGEN GmbH, Karlsruhe, D) containing 5-10% WEHI-3B (DSMZ, Braunschweig, D; cultivated as described by the DSMZ) conditioned medium as source of exogenous IL-3 were harvested by centrifugation, washed and aliquoted at 100,000 cells per well in a 24-well plate. Cells were allowed to adapt for 1 hour at 37° C. in RPMI medium without WEHI-3B conditioned media before G-CSF growth factor samples diluted in the same media were added. NFS-60 cells were exposed to purified G-CSF variants (purification according to examples 3A 1 und 2, protein quantification according to example 3B1):
“Mock incubation” (=reaction control, 197 mg/ml HES50/0.7, MW 47,000 D, DS 0.76, Supramol Parenteral Colloids GmbH, Rosbach Rodheim, Germany), for 3 days at 37° C. and then the cells were electronically counted (Casy TT Cell Counter, Schärfe System, Reutlingen, D).
In all cases, the amounts of protein given in the table below and FIG. 21 represent the G-CSF content of the conjugates only. […] All variants reached the same maximum stimulation level at a concentration of 250 pg/ml.

Molecule	Proliferation of mouse NFS-60 cells, induced by G-CSF variants
B1	0.70
B2	0.97
B3	1.21
B4	0.80
B5	0.93
B6	1.20
B7	1.31

Same assay, conditions: Conc. 10 pg/ml (G-CSF content), 3 days

Molecule	Proliferation of mouse NFS-60 cells, induced by G-CSF variants
B1	0.97
B2	1.40
B3	1.62
B4	1.12
B5	1.44
B6	1.69
B7	1.91

Same assay, conditions: Conc. 25 pg/ml (G-CSF content), 3 days

Molecule	Proliferation of mouse NFS-60 cells, induced by G-CSF variants
B1	1.68
B2	2.17
B3	2.28
B4	1.83
B5	2.14
B6	2.33
B7	2.38

Same assay, conditions: Conc. 50 pg/ml (G-CSF content), 3 days

Molecule	Proliferation of mouse NFS-60 cells, induced by G-CSF variants
B1	2.15
B2	2.67
B3	2.50
B4	2.25
B5	2.41
B6	2.49
B7	2.47

Same assay, conditions: Conc. 250 pg/ml (G-CSF content), 3 days

Molecule	Proliferation of mouse NFS-60 cells, induced by G-CSF variants
B1	2.32
B2	2.75
B3	2.60
B4	2.33
B5	2.41
B6	2.41
B7	2.41

Test system: not listed separately
Assay: In-vivo half-life of alpha1AT samples in mice (alpha1AT-ELISA)
Conditions: 100 μl of 50 μg/ml i.v. tail vein, female BALB/c mice
Description: Female mice aged 8-10 weeks (BALB/cOlaHsd, Harlan GmbH, Borchen, Germany) were utilized as test organism (42 mice, 14 per sample). The “is bodyweight” of each animal was detected right before administration of the different sample solutions. 100 μl of a 50 μg/ml solution of the samples outlined below in a puffer pH=7.2 (20 mmol sodium phosphate, 150 mmol sodium chloride) were injected intravenously in the tail vein of the mice.
At 1, 2, 4, 10, 24, 31, […], hours after injection, two mice of each group were killed and whole blood samples (˜500 μl) were withdrawn from the heart of the animals. Serum was prepared using Microvette® 500 Z-Gel (Sarstedt, Nümbrecht, Germany). The serum samples were stored at −80° C. until the beginning of the alpha1AT concentration measurements.
alpha1AT concentrations were detected using a commercially available alpha1AT-ELISA (Immundiagnostik, Bensheim, Germany) following the manufacturers instructions.

Molecule	Plasma half-life in mice [h]
A1AT: rh A1AT provided by GTC Biotherapeutics Inc., lot No. 080604A; starting material for the conjugation [Example A1AT]	1.2
HES-A1AT-conjugate: conjugate of aldehydo-HES (A) and (B) (MW 57,000 D, DS 0.76) with rh A1AT, example 5.5	3.6
Sample 3: plasma derived h alpha1 AT (SERVA Electrophoresis GmbH) [reference compound]	3.2

Test system: not listed separately
Assay: In vivo half-life of G-CSF samples in mice (ELISA of plasma)
Conditions: 100 μg per kg i.v. tail vein, female BALB/c mice
Description: Female mice BALB/cOlaHsd (Harlan GmbH/Borchen) were used. On the day of administration, the is weights of the animals were measured (19-22 g). 100 μg per kg body weight of the chemically modified rh-G-CSF sample as prepared in Example 6.2(b) as well as Neupogen® and Neulasta® (Amgen) samples were each injected intravenously in the tail vein of nine mice. At 1, 3, 6, 11, 22, 30, 49, 72 hours after injection (see table below), samples of approx. 150 μl whole blood were taken from the tail vein or the retrobulbar venous plexus from 3 mice of the respective group using capillaries containing sodium-heparin (Hirschmann, Eberstadt) and stored on ice until preparation of plasma.
Whole blood was centrifuged for 10 minutes at 2000 g. Plasma was transferred to another tube and recentrifuged for 5 min at 3500 g. Aliquots were stored at −80° C. until the day of analysis. The amount of G-CSF in the plasma samples were quantified by utilizing a ELISA (R&D GambH, Wiesbaden) method, following the instruction of the manufacturer.

Molecule	half-life [h]
B1	5.1
B4	5.2
B6	1.2

Test system: normocythaemic mouse system
Assay: EPO-bioassay in the normocythaemic mouse system
Format: in vivo
Conditions: mouse, in vivo
Description: Quantitative determination of EPO protein was performed by measuring UV absorption at 280 nm according to the Eur. Phar. (European Pharmacopeia 4, Monography 01/2002: 1316: erythropoietin concentrated solution) in a cuvette with 1 cm path length. In addition, EPO was quantitated by applying a RP-HPLC method using a RP-C4 column (Vydac Protein C4, Cat.#214TP5410, Grace Vydac, Ca, US); the HPLC method was calibrated using the erythropoietin BRP 1 reference standard (European Pharmacopeia, Conseil de l'Europe B.P. 907-F67029, Strasbourg Cedex 1).
The EPO-bioassay in the normocythaemic mouse system was performed according to the procedures described in the European Pharmacopeia 4, Monography 01/2002:1316: Erythropoietin concentrated solution and Ph. Eur. Chapter 5.3: “Statistical Analysis of Results of Biological Assays and Tests”; For the HES-modified EPO according to example 7.3 a value for the specific activity of 418 500 units per mg EPO of protein was measured indicating an approximately 4-5 fold higher specific activity when compared to the EPO starting material.

Molecule	Calculated specific activity of EPO sample (based on A280 and RP-HPLC determination) [U/mg]	higher specific activity when compared to the EPO starting material
EPO HES according to example 7.3: recombinant human EPO conjugated with aldehydo-HES of example 7.2 (MW 57,000 D, DS 0.76) by reductive amination	418500	4-5 fold
EPO starting material (Reaction control A): EPO reacted with aldehydo-HES without sodium cyanoborohydride (example 7.4)	88500	–
EPO starting material (not modified): recombinant human EPO, essentially same characteristics as Erypo or NeoRecormon	89000	–

Same assay, conditions: per mg EPO of protein

Molecule	specific activity
EPO HES according to example 7.3: recombinant human EPO conjugated with aldehydo-HES of example 7.2 (MW 57,000 D, DS 0.76) by reductive amination	418 500 units per mg

Test system: not given
Assay: not given
Conditions: cited from earlier work

Molecule	circulatory activity half-life in vivo
activated protein C	less than 30 min

From US8287850B2, “Conjugates of hydroxyalkyl starch and a protein, prepared by reductive amination” (Fresenius Kabi Deutschland GmbH, priority 2004, dated 2012)
